According to the supplement of paper PMC9732359:
± gives the uncertainty stated by the source.

Test: protein stability index of a GFP-peptide fusion (yeast GPS) (PSI 1-4); higher = more stable; sorted into four equal gates, so the index is relative within each strain
Procedure, shortened: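 Each library plasmid carries Cherry plus GFP with a tiled 17-residue yeast protein peptide fused downstream, and the pooled library was carried in yeast. Mid-log cultures in leucine-free medium were sorted into four equal gates by GFP/Cherry ratio. Reads from Illumina sequencing of PCR-amplified plasmids from each gate were assigned to strains by barcodes. Per peptide, the protein stability index was computed as the summed products of gate read frequency and gate number.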

Sequence | protein stability index (doa10∆) | protein stability index (pdr5∆) | protein stability index (san1∆) | protein stability index (ubr1∆)
RFMRFLADRDEFIQDSA [ECM29] | 1.87 ± 0.052 | 1.23 ± 0.042 | 1.21 ± 0.094 | 2.26 ± 0.029
TEDIRIRAQNFKSALAN [RRP6] | 2.35 ± 0.067 | 2.41 ± 0.091 | 2.56 ± 0.1 | 2.73 ± 0.053
GNGLVDENKVEAFKSLY [YAR002W/NUP60] | 3.35 ± 0.1 | 3.14 ± 0.12 | 3.53 ± 0.056 | 3.3 ± 0.053
IDDKTQNDELTMGMRAL [DIS3] | 2.74 ± 0.083 | 2.83 ± 0.068 | 2.87 ± 0.058 | 3 ± 0.059
VKVARLAGKYIPNLTAK [FAS1] | 3.34 ± 0.25 | 2.58 ± 0.22 | – | 3.03 ± 0.14
NKLTILGRDYPIEVDEE [IRR1] | 2.28 ± 0.1 | 2.56 ± 0.12 | 2.38 ± 0.11 | 2.64 ± 0.066
RSPPRPPSLKIIDGPKA [PRP28] | 2.23 ± 0.07 | 2.27 ± 0.079 | 1.98 ± 0.094 | 1.74 ± 0.041
YVTKPMVNESDGVTHAL [RPB2] | 3.2 ± 0.088 | 3.28 ± 0.087 | 2.94 ± 0.081 | 3.36 ± 0.082
GDHSSVPVALKGQGPFT [YMR129W/POM152] | 1.87 ± 0.25 | – | – | 1.83 ± 0.2
KANISLETLEHNGAPHH [RPO21] | 3.29 ± 0.16 | 3.05 ± 0.15 | 3.19 ± 0.12 | –
LKGLLQELKADSPFSLI [SRP72] | 1.43 ± 0.059 | 1.26 ± 0.059 | 2.42 ± 0.092 | 1.45 ± 0.046
VRVQRQKKILSIRLKVP [RPL8A] | 1.49 ± 0.032 | 1.28 ± 0.032 | 1.26 ± 0.054 | 1.25 ± 0.025
SQVFGVARIYASFNDTF [RPS14A] | 2.05 ± 0.062 | 1.81 ± 0.045 | 2.11 ± 0.073 | 2.38 ± 0.056
AIVPGQSISGTLELSAQ [SWP82] | 3.43 ± 0.094 | 3.13 ± 0.11 | 2.98 ± 0.14 | 3.07 ± 0.092
FREAIVATEPLLDILVK [PRP8] | 1.86 ± 0.047 | 2.16 ± 0.043 | 1.96 ± 0.1 | 1.54 ± 0.031
CFCEDHCDKCSVVLTLQ [RPB3] | 3.12 ± 0.14 | 3.15 ± 0.14 | 2.42 ± 0.19 | 2.51 ± 0.17
IQEIKESVELPLTHPEL [RPT2] | 2.7 ± 0.073 | 2.97 ± 0.069 | 2.74 ± 0.068 | 2.75 ± 0.035
VKCEELSNTLACYRTIM [RRP40] | 2.24 ± 0.069 | 2.49 ± 0.093 | 2.01 ± 0.087 | 2.57 ± 0.075
QIKTLPEQYSDILLNER [AAR2] | 2.96 ± 0.077 | 3.24 ± 0.06 | 3.14 ± 0.077 | 2.95 ± 0.072
PNIADYITAKNNVVINF [PRP8] | 2.11 ± 0.087 | 1.26 ± 0.065 | 1.43 ± 0.28 | 1.26 ± 0.067
FLNEARDKAGRLAEVNL [RPO21] | 2.05 ± 0.074 | 1.55 ± 0.054 | 2.06 ± 0.13 | 1.47 ± 0.055
AGRKFKSRRCDDMLYYI [POP4] | 2.96 ± 0.094 | 3.06 ± 0.094 | 3.21 ± 0.084 | 3.04 ± 0.068
GNMCRGGRMFAPTKTWR [RPL4A] | 2.92 ± 0.078 | 2.61 ± 0.12 | 3.04 ± 0.063 | 2.34 ± 0.053
DLSISALLGDKIYNFGE [RPN9] | 3.08 ± 0.068 | 3.11 ± 0.065 | 3.15 ± 0.061 | 3.12 ± 0.091
KDRFDIDEKSQFVETIV [RPN2] | 2.15 ± 0.05 | 2.48 ± 0.069 | 1.93 ± 0.066 | 2.17 ± 0.059
TNSPQISVTRQVVLGGT [SMC2] | 2.82 ± 0.078 | 3 ± 0.075 | 3.03 ± 0.064 | 2.67 ± 0.048
TLLARAVAHHTDCKFIR [RPT6] | 3.09 ± 0.11 | 3.03 ± 0.076 | 1.86 ± 0.14 | 2.23 ± 0.15

Sequence | protein stability index (doa10∆) | protein stability index (pdr5∆) | protein stability index (san1∆) | protein stability index (ubr1∆)
KIPLPEVHDLIGFITSG [POP1] | – | 1.66 ± 0.24 | 1.88 ± 0.18 | 1.91 ± 0.14
AQTIGRNSKTVREFLEK [PRE6] | 2.76 ± 0.2 | 3.27 ± 0.29 | 3.29 ± 0.07 | 3.02 ± 0.14
SPMGAQPSYNSAIIENA [GAL11] | 2.88 ± 0.074 | 2.96 ± 0.071 | 2.5 ± 0.1 | 2.73 ± 0.045
SLILKESGSTPISISNA [YAR002W/NUP60] | 1.2 ± 0.085 | 1.62 ± 0.1 | 1.45 ± 0.11 | 1.23 ± 0.1
IEEKLSSFSKKTLTEEV [YIL149C/MLP2] | 2.92 ± 0.054 | 3.07 ± 0.052 | 3.03 ± 0.052 | 3 ± 0.048
LVREIAQDFKTDLRFQS [HHT1] | 2.55 ± 0.097 | 3 ± 0.078 | 2.65 ± 0.076 | 2.88 ± 0.099
LEYMNTARINNRRLFKK [RRI2] | 2.5 ± 0.08 | 2.21 ± 0.072 | 2.3 ± 0.083 | 2.5 ± 0.075
VTPEDVMTISSLEQRTL [RPC82] | 3.2 ± 0.084 | 3.1 ± 0.076 | 3.06 ± 0.061 | 3.25 ± 0.073
YCKGKTCRKHTQHKVTQ [RPL42A] | 2.77 ± 0.094 | 3.06 ± 0.17 | 2.54 ± 0.12 | 2.91 ± 0.14
NKKSEENEMIKPMNKGQ [SWP82] | 3.09 ± 0.18 | 3.41 ± 0.095 | 3.39 ± 0.067 | 3.39 ± 0.26
RVHANLQCISQINQGVP [SNF11] | 1.49 ± 0.043 | 1.42 ± 0.043 | 1.47 ± 0.067 | 1.89 ± 0.055
PEVSMIRDIREKELKIF [RPB2] | 3.13 ± 0.15 | 2.41 ± 0.084 | 3.38 ± 0.075 | 2.69 ± 0.13
LAKERQKLWLLECQLFP [SSN8] | 2.06 ± 0.057 | 1.85 ± 0.052 | 1.47 ± 0.1 | 2.05 ± 0.047
HIQVNQAPKQRRRTYRA [RPL17A] | 1.89 ± 0.12 | 2.34 ± 0.11 | 2.38 ± 0.2 | 3.28 ± 0.14
QWIKFLLHTLYLRPASA [SSN8] | 1.81 ± 0.051 | 1.59 ± 0.042 | 1.4 ± 0.073 | 1.72 ± 0.035
DYGEEIKSGVAKLESLL [MTW1] | 3.26 ± 0.24 | 3.11 ± 0.12 | 3.37 ± 0.13 | 3.4 ± 0.087
QEQVQDYVNKTNSHLPA [FAS1] | 2.52 ± 0.069 | 2.44 ± 0.1 | 2.62 ± 0.11 | 2.32 ± 0.064
KGVATTREKVLEDKLRA [RRP46] | 3.36 ± 0.15 | 3.16 ± 0.12 | 2.71 ± 0.23 | 3.04 ± 0.075
LAVFLFDIYNRDRKLIT [YJL039C/NUP192] | 1.98 ± 0.2 | 1.46 ± 0.13 | – | –
AIPNGIHLQRFDEGTTL [RPO21] | 2.29 ± 0.064 | 1.89 ± 0.11 | – | 2.32 ± 0.062
KNNILGSNVLKSGKTIV [RRP43] | 3.05 ± 0.039 | 3.11 ± 0.044 | 3.04 ± 0.043 | 3.076 ± 0.03
KSIRKDTVEEKKEEKLN [SIR4] | 2.96 ± 0.088 | 3.2 ± 0.12 | 3.17 ± 0.065 | 2.76 ± 0.091
ATMSVFLQRIDFQIDGN [RRI2] | 2.92 ± 0.081 | 2.99 ± 0.066 | 2.95 ± 0.059 | 3.29 ± 0.058
FDINRSHKEGRRVPKEL [SEC65] | – | 2.52 ± 0.24 | – | –
VTVVDTPPVVVVGVVGY [RPL3] | 1.17 ± 0.051 | 1.41 ± 0.061 | 1.26 ± 0.065 | 1.39 ± 0.048
TDVKLTLPQPRLNKLNS [SMD1] | 2.73 ± 0.066 | 2.79 ± 0.059 | 2.1 ± 0.071 | 2.73 ± 0.059
LVDLKKELAELKVQKLS [RPL35A] | 1.2 ± 0.066 | 1.59 ± 0.097 | 1.46 ± 0.12 | 1.68 ± 0.085
